In patent US7176279 (PALATIN TECHNOLOGIES, dated 2007):

Tests used:
[1] = target: T1, MC1-R (B16-F1 mouse melanoma cells) (mouse, UniProt Q01727 1-315); test: titrated competitive binding assay on receptor membranes
T1 construct: whole, on cells; Assayed as membranes prepared from B16-F1 mouse melanoma cells; also called MC1 receptor; melanocortin-1 receptor

hMC3-R [2] = target: T2, hMC3-R (human, UniProt P41968 1-323); test: as above
T2 construct: whole, on cells; Assayed as membranes prepared from transfected HEK 293 cells; also called MC3 receptor; melanocortin-3 receptor

hMC4-R [3] = target: T3, hMC4-R (human, UniProt P32245 1-332); test: as above
T3 construct: whole, on cells; cAMP assay on whole transfected HEK-293 cells; also called MC4 receptor; melanocortin-4 receptor

hMC5-R [4] = target: T4, hMC5-R (human, UniProt P33032 1-325); test: as above
T4 construct: whole, on cells; Assayed as membranes prepared from transfected HEK 293 cells; also called MC5 receptor; melanocortin-5 receptor

[5] = target: T1, MC1-R (B16-F1 mouse melanoma cells); test: competition with 125I-NDP-MSH, B16-F1 membranes, 1 µM peptide
hMC3-R [6] = target: T2, hMC3-R; test: competition with 125I-NDP-MSH, HEK 293 hMC3-R membranes, 1 µM peptide
hMC4-R [7] = target: T3, hMC4-R; test: competition with 125I-NDP-MSH, HEK 293 hMC4-R membranes, 1 µM peptide
hMC5-R [8] = target: T4, hMC5-R; test: competition with 125I-NDP-MSH, HEK 293 hMC5-R membranes, 1 µM peptide

T1 sequence (Q01727 whole entry): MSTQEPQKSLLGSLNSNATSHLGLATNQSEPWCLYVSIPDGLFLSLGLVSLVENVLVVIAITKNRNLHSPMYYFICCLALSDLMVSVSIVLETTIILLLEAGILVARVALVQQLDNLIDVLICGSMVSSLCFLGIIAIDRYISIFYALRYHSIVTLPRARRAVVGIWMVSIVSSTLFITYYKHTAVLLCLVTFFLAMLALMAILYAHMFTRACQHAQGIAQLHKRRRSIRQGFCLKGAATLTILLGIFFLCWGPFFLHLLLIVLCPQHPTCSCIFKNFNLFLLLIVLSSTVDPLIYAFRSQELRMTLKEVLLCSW
T4 sequence (P33032 whole entry): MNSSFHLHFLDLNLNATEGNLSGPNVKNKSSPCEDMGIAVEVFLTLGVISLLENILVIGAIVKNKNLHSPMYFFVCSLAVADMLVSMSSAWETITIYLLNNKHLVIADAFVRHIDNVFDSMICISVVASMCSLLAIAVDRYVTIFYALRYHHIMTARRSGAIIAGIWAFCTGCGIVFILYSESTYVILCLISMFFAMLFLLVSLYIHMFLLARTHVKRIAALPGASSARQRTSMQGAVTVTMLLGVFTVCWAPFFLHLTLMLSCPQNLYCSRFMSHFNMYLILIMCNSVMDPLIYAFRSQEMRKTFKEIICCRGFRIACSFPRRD
T3 sequence (P32245 whole entry): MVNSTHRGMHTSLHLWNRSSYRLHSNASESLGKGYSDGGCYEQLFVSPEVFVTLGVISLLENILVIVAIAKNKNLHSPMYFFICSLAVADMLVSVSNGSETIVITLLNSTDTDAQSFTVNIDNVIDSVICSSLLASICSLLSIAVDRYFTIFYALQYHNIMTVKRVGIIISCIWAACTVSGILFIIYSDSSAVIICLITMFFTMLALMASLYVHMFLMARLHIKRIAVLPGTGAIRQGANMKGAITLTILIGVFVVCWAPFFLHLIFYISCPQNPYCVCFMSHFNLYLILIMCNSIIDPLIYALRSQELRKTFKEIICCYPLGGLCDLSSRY
T2 sequence (P41968 whole entry): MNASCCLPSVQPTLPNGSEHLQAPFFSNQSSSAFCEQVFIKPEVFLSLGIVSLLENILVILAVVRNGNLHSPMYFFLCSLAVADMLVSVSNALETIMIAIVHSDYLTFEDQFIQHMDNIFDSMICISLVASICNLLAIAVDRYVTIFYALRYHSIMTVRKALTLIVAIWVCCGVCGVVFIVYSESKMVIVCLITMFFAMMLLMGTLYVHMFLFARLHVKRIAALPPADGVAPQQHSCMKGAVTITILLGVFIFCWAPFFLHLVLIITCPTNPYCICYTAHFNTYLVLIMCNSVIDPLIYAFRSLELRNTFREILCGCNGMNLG

Ki [1]: 0.0099 µM
Ki (hMC3-R [2]): 10.8 µM
Ki (hMC4-R [3]): 742 µM
Ki (hMC5-R [4]): 2.53 µM
Percent Inhibition At 1 µM concentration [5]: 86%
Percent Inhibition At 1 µM concentration (hMC3-R [6]): 8%
Percent Inhibition At 1 µM concentration (hMC4-R [7]): 46%
Percent Inhibition At 1 µM concentration (hMC5-R [8]): 17%
B1: Ac-Nle-cyclo(-Asp-His-D-Phe-Lys-Trp-Lys)-OH (peptide)
peptide: XDHFKWK
modifications: N-terminal acetyl; Nle at 1 (X); D-Phe at 4; cyclo (lactam) between side chains of Asp 2 and Lys 7; C-terminal free acid (-OH)
notes: Synthetic cyclic heptapeptide; X = norleucine; also called Ac-Nle-cyclo( -Asp-His-D-Phe-Lys-Trp-Lsy)-OH
